Measured values as given in US7045576B2, “Adjuvants and copolymer compositions” (Cytrx Corporation, priority 1994, dated 2006).

How the values were obtained:
[1] = test system: splenic mononuclear cells; format: cell-based, C57BL/6 mice; conditions: immunization with OVA alone
ovalbumin (OVA) [2] = format: in vivo, C57BL/6 mice; conditions: two immunizations with 15 μg of OVA in saline, no adjuvant, 4 weeks
Experimental: The immune responses induced by experimental subunit vaccine formulations based on a prototype immunogen combined with different adjuvants including CRL1005 were evaluated. Ovalbumin (OVA) was selected as to vaccine immunogen since dose levels of OVA for obtaining optimal and suboptimal immune responses had been established previously. […] OVA was administered at a dose of 15 ug/dose in a total volume of 100 ul. This dose of OVA had been established as non-immunogenic unless combined with an adjuvant.
Ninety mice (C57BL/6) were divided into 9 test and control groups of 10 mice per group. The mice were immunized twice with 28 days between immunizations. Vaccines were administered by needle injection subcutaneously (s.c.) in a total volume of 100 μ/dose.
To evaluate antibody responses, 4 weeks after the second immunization blood was collected via the retro-orbital sinus from 6 mice/group and sera was recovered for serological assay.

ovalbumin (OVA) [3] = assay: Serum antibody responses to OVA after s.c., oral or nasal delivery; format: in vivo, C57BL/6 mice
Experimental: The utility of the CRL1005 copolymer for use as an oral vaccine adjuvant/delivery system using OVA as the vaccine antigen was evaluated. To ensure immunogenicity of the formulation, C57BLJ6 mice in the positive control group were immunized twice, at ten day intervals, subcutaneously (s.c.) with 25 μg/100 μl dose of OVA+/−1.25% CRL1005 in PBS. Mice immunized orally received 125 μg/500 μl dose of +/−1.25% CRL1005 in bicarbonate buffer, again at 10 day intervals. Mice were also immunized using nasal delivery since dilution or degradation in the stomach was considered to be a possibility. Mice received the same amounts of OVA and CRL1005 used for the s c injections but in a volume of 20 μl. Blood was collected as the source of serum antibodies for testing 14 days after the second immunization.

EG-7.OVA cells = assay: OVA-specific cytotoxic T-lymphocyte (CTL) 51Cr-release assay; format: cell-based, C57BL/6 mice; conditions: after culture of spleen cells with irradiated EG-7.OVA; two immunizations
From the text: FIG. 12 presents OVA-specific cytotoxic T-lymphocyte (CTL) responses induced in C57BL/6 mice following two immunizations (days 0 and 28) with OVA in saline (left) or formulated in aqueous solution with CRL1005 copolymer adjuvant (right). A standard ^51 chromium (CR)-release CTL assay was used with OVA-transfected EG-7.OVA cells and control EL-4 cells as the targets. Spleen cells were used as the source of precursor CTL, which were induced to mature to functional CTL effector cells, by culture for 6 days with irradiated EG-7.OVA or EL-4 cells. All testing was done in triplicate using a titration of Effector: Target cells, shown as ratios. Data are shown as the Percent Specific Release (Test Release−Spontaneous Release/Maximum Release−Spontaneous Release)×100.
Cytotoxic T-lymphocyte responses (CTL) were measured using a standard in vitro assay and two different cells for stimulator and target cells. The OVA.EG7 cell line was used as both target cells and antigen specific stimulator cells; cells were irradiated when used as stimulator cells. Control target cells were wild-type EL-4 cells, that are not transfected with OVA. Splenic mononuclear cells were used as the effector cells. These cells were assayed after in vitro stimulation to induce precursor CTL maturation to functional CTL effector cells.

Chain of ovalbumin (OVA) (P01012 whole entry): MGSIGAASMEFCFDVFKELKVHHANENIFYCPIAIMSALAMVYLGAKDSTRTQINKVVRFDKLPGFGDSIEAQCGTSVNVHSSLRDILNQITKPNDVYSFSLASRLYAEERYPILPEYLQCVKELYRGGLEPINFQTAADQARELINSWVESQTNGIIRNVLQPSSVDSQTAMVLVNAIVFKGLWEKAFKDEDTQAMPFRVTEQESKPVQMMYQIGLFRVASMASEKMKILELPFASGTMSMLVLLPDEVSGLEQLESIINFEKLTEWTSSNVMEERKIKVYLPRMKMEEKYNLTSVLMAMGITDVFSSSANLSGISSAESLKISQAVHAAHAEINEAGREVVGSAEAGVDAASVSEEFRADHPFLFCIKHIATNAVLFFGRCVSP

B1: OVA: ovalbumin, prototype vaccine immunogen given without adjuvant (protein, UniProt P01012 2-386, looked up)
Ovalbumin: GSIGAASMEFCFDVFKELKVHHANENIFYCPIAIMSALAMVYLGAKDSTRTQINKVVRFDKLPGFGDSIEAQCGTSVNVHSSLRDILNQITKPNDVYSFSLASRLYAEERYPILPEYLQCVKELYRGGLEPINFQTAADQARELINSWVESQTNGIIRNVLQPSSVDSQTAMVLVNAIVFKGLWEKAFKDEDTQAMPFRVTEQESKPVQMMYQIGLFRVASMASEKMKILELPFASGTMSMLVLLPDEVSGLEQLESIINFEKLTEWTSSNVMEERKIKVYLPRMKMEEKYNLTSVLMAMGITDVFSSSANLSGISSAESLKISQAVHAAHAEINEAGREVVGSAEAGVDAASVSEEFRADHPFLFCIKHIATNAVLFFGRCVSP
cytokine responses [1]: did not induce measurable cytokine responses | OVA-specific antibody responses (ovalbumin (OVA) [2]): not induced | serum antibody response to OVA (ovalbumin (OVA) [3]; nasal, 25 μg OVA +/- 1.25% CRL1005 in 20 μl, twice): failed to induce antibody responses | serum antibody response to OVA (ovalbumin (OVA) [3]; oral, 125 μg OVA +/- 1.25% CRL1005 in bicarbonate buffer, twice): failed to induce antibody responses | serum antibody response to OVA (ovalbumin (OVA) [3]; s.c., 25 μg OVA +/- 1.25% CRL1005, twice, 14 days after second immunization): effective | OVA-specific CTL activity (EG-7.OVA cells): not detected
